# B1: SIP (F8): antibody F8 in SIP format (scFv fused to epsilon-CH4 domain of human IgE) (protein)
# chain: EVQLLESGGGLVQPGGSLRLSCAASGFTFSLFTMSWVRQAPGKGLEWVSAISGSGGSTYYADSVKGRFTISRDNSKNTLYLQMNSLRAEDTAVYYCAKSTHLYLFDYWGQGTLVTVSSGGGGSGGGGSGGGGEIVLTQSPGTLSLSPGERATLSCRASQSVSMPFLAWYQQKPGQAPRLLIYGASSRATGIPDRFSGSGSGTDFTLTISRLEPEDFAVYYCQQMRGRPPTFGQGTKVEIKSGGSGGPRAAPEVYAFATPEWPGSRDKRTLACLIQNFMPEDISVQWLHNEVQLPDARHSTTQPRKTKGSGFFVFSRLEVTRAEWEQKDEFICRAVHEAASPSQTVQRAVSVNPESSRRGGC
# B2: muTNFR-Fc: extracellular part of the murine p75-TNF receptor appended at the N-terminus of a murine IgG1 Fc portion; murine version of Enbrel (protein)
# chain: VPAQVVLTPYKPEPGYECQISQEYYDRKAQMCCAKCPPGQYVKHFCNKTSDTVCADCEASMYTQVWNQFRTCLSCSSSCTTDQVEIRACTKQQNRVCACEAGRYCALKTHSGSCRQCMRLSKCGPGFGVASSRAPNGNVLCKACAPGTFSDTTSSTDVCRPHRICSILAIPGNASTDAVCAPESPTLSAIPRTLYVSQPEPTRSQPLDQEPGPSQTPSILTSLGSTPIIEQSTKGGVPRDCGCKPCICTVPEVSSVFIFPPKPKDVLTITLTPKVTCVVVDISKDDPEVQFSWFVDDVEVHTAQTKPREEQFNSTFRSVSELPIMHQDWLNGKEFKCRVNSAAFPAPIEKTISKTKGRPKAPQVYTIPPPKEQMAKDKVSLTCMITDFFPEDITVEWQWNGQPAENYKNTQPIMDTDGSYFVYSKLNVQKSNWEAGNTFTCSVLHEGLHNHHTEKSLSHSPGK
# What was measured:
# [1] = biological target: T1, EDA in the pancreas of diabetic mice (Mus musculus, UniProt P11276); assay: Immunofluorescence staining of pancreas of diabetic mice; conditions: antibodies in SIP format, 2 μg/ml
# T1 construct: from tissue; host or cells: pancreas of streptozotocin-treated diabetic C57BL/6J mice (frozen sections)
# Protocol: Type 1 diabetes is an autoimmune disease characterized by progressive destruction of pancreatic beta-cells. IL4 has been previously proposed as a potential medicament for preventing diabetes mellitus type 1 (Walz et al. 2002). Six week old C57BL/6J male mice were treated for 5 consecutive days with Streptozotocin (50 mg/kg by intraperitoneal [i.p.] injection). Blood glucose levels were recorded daily and mice were deemed diabetic if their non-fasted blood glucose levels were >300-400 mg/decilitre (dL). Pancreatic tissue was collected from the diabetic mice and snap frozen before cutting and staining. The staining procedure was performed according to the method set out in Pfaffen et al., Eur. J. Nucl. Med. Mol. Imaging (2010). Briefly, purified antibodies in SIP format (2 μg/ml), including antibody F8 (SEQ ID NO: 69), were added onto the sections and detected with a rabbit […] antibody (Dako). A further incubation with the fluorescently labelled goat anti-rabbit IgG Alexa Fluor 488 antibody (Life Technologies) was performed prior to imaging. Blood vessels and cell nuclei were detected using a rat anti-mouse CD31 antibody (BD Bioscience) followed incubation with a donkey anti-rat Alexa 594 antibody (Life Technologies), and DAPI, respectively. The filled white arrows in FIG. 19 indicate CD31^+ blood vessels. […]
# TNF = biological target: T2, TNF (Homo sapiens, UniProt P01375); assay: Inhibition of TNF-mediated killing of LM fibroblasts; assay type: cell-based, mouse
# T2 construct: host or cells: LM fibroblasts (mouse) as indicator cells
# Source text: The murine fusion protein muTNFR-Fc (extracellular part of the murine p75-TNF receptor appended at the N-terminus of a murine IgG1 Fc portion, containing the hinge region) was expressed by stable transfection in CHO cells, according to the supplier's protocol. The fusion protein was purified from the culture supernatant by protein A chromatography, yielding a preparation which was pure in SDS-PAGE analysis and size exclusion chromatography (see FIGS. 2A and B). The biological activity of muTNFR-Fc was tested by inhibition of TNF-mediated killing of LM fibroblasts (see FIG. 2C). TNF inhibitors such as Enbrel™ and Humeira™ represent the standard of care in rheumatoid arthritis patients. muTNFR-Fc is a murine version of a TNF inhibitor for use in mouse models of the disease.
# [2] = system: imiquimod (IMQ)-induced ear inflammation in C57BL/6 mice; assay: IMQ-induced inflammation model of psoriasis; assay type: in vivo, mouse; conditions: day 13
# Protocol: C57BL/6 mice (Charles River, Germany) were treated on each side of each ear with 5 mg Aldara cream (containing 0.25 mg Imiquimod). The treatment schedule is illustrated in FIG. 11A. The Aldara cream was applied every day for 5 days (on day 1, 2, 3, 4 5 and […]: each application is illustrated by an asterisk in FIG. 11A). Ear thickness was measured with a caliper before the application of the cream. […] Treatment was repeated on day 9 and 11 (each treatment event is illustrated by an arrow in FIG. 11A).
# [3] = system: CHS-induced ear inflammation in K14-VEGF-A mice; assay: Contact hypersensitivity-induced ear inflammation in K14-VEGF-A mice; assay type: in vivo, mouse; conditions: day 15
# Source text: A delayed-type hypersensitivity reaction was induced in the ear skin of female FVB mice that overexpress VEGF-A in the epidermis under control of the human keratin 14 promoter as previously described (Detmar et al., 1998; Kunstfeld et al., 2004; Xia et al., 2003). Heterozygous VEGF-A transgenic mice with no pre-existing inflammatory lesions were sensitized by topical application of a 2% oxazolone (4-ethoxymethylene-2-phenyl-2-oxazoline-5-one; Sigma) solution in acetone/olive oil (4:1 vol/vol) to the shaved abdomen (50 μl) and each paw (5 μl). Five days after sensitization, the ears were challenged by topical application of 20 μl of a 1% oxazolone solution. Therapy was started on day 7 and repeated at day 9, 11 and 13. […] Ear thickness was measured every other day and at day 15, mice were sacrificed and ear draining lymph nodes were weighted. The timeline for this experiment is illustrated in FIG. 13A. Each treatment event is indicated by an arrow.
# T2 sequence (P01375 77-233 limits assumed, species assumed): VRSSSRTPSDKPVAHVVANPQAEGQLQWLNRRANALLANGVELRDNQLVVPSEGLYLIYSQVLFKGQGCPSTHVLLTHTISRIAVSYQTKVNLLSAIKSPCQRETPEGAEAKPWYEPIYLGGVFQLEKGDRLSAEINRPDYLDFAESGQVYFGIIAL
# T1 sequence (P11276 33-2477): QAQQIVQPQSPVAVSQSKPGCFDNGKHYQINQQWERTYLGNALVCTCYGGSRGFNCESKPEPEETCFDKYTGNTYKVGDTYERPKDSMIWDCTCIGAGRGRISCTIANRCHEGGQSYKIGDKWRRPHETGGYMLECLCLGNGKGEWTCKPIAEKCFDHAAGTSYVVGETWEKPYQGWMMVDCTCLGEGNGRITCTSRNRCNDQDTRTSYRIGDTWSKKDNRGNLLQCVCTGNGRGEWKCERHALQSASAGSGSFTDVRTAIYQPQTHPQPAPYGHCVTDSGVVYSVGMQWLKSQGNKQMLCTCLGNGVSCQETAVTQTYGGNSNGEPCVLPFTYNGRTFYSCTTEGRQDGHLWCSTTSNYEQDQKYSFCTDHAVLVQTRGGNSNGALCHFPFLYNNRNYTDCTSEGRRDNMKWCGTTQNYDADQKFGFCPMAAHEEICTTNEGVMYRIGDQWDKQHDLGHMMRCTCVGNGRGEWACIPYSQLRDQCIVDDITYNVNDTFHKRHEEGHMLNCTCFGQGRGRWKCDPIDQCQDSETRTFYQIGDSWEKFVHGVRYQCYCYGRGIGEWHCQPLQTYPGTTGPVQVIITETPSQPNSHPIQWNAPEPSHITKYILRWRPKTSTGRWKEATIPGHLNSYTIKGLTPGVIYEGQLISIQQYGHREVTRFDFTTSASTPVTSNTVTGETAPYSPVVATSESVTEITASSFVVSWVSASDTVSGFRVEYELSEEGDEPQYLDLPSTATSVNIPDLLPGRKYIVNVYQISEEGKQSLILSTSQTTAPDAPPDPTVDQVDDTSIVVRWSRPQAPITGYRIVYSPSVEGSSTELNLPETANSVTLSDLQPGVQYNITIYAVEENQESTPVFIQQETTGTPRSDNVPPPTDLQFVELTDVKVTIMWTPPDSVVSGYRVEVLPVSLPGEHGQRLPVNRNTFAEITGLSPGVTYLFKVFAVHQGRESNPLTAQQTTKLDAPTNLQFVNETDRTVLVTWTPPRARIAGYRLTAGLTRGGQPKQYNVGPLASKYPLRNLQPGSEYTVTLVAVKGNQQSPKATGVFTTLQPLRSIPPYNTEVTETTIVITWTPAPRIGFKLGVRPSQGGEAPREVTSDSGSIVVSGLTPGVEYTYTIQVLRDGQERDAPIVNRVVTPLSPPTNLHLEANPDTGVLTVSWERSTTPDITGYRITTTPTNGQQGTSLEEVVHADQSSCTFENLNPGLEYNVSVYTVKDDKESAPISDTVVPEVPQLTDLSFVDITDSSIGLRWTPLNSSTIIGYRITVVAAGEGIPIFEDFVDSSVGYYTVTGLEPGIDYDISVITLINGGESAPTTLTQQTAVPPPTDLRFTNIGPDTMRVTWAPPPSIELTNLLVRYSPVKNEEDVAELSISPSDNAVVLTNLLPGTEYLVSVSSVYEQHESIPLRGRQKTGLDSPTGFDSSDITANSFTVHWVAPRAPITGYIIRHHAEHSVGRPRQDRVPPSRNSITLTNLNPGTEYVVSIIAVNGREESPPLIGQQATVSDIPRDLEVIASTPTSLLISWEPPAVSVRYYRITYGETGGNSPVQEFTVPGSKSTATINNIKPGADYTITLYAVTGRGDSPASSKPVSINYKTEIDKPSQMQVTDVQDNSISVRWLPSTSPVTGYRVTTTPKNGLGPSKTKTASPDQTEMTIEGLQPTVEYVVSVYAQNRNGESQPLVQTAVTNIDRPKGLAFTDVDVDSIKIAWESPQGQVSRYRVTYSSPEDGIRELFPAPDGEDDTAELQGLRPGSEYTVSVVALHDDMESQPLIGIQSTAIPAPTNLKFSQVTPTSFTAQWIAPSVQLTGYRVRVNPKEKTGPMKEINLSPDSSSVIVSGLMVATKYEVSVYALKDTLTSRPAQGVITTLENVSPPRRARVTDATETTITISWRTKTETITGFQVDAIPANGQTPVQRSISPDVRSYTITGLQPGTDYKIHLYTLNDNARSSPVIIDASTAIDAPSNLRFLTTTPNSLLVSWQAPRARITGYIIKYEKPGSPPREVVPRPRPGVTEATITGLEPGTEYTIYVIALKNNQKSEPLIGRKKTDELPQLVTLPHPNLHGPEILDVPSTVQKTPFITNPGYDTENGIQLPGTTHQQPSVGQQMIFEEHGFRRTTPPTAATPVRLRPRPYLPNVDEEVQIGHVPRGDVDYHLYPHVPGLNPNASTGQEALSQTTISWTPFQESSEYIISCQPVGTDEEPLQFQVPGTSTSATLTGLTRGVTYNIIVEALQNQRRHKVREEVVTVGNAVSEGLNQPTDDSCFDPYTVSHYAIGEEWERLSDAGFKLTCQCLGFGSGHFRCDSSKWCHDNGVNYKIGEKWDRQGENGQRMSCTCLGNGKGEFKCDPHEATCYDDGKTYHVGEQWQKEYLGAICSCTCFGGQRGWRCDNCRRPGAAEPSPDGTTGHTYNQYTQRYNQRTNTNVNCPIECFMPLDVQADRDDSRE
molecule,measurement,setting,value
B1,colocalization of staining with CD31+ blood vessels,[1],colocalization of EDA and CD31 in the pancreas of diabetic mice
B2,inhibition of TNF induced killing of mouse fibroblasts,TNF,inhibits TNF induced killing of mouse fibroblasts
same,ear draining lymph nodes (weight),[2],smaller
same,ear draining lymph nodes (weight),[3],smaller
